± gives the uncertainty stated by the source.
Test: self-splicing fitness, log relative to wild type (ln ratio); higher = more splicing; Tetrahymena group I intron in knt gene, E. coli kanamycin selection, DiMSum; sequences stand for … in CUCUCU…GGAGGGAAAAGUUAUCAGGCAUGCACCUGGUAGCUAGUCUUUAAACCAAUAGAUUGCAUCGGUUUAAAAGGCAAGACCGUCAAAUUGCGGGAAAGGGGUCAACAGCCGUUCAGUACCAAGUCUCAGGGGAAACUUUGAGAUGGCCUUGCAAAGGGUAUGGUAAUAAGCUGACGGACAUGGUCCUAACCACGCAGCCAAGUCCUAAGUCAACAGAUCUUCUGUUGAUAUGGAUGCAGUUCACAGACUAAAUGUCGGUCGGGGAAGAUGUAUUCUUCUCAUAAGAUAUAGUCGGACCUCUCCUUAAUGGGAGCUAGCGGAUGAAGUGAUGCAACACUGGAGCCGCUGGGAACUAAUUUGUAUGCGAAAGUAUAUUGAUUAGUUUUGGAGUACUCGUGGUCG
Outline: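 Fitness was computed with DiMSum as the error-weighted combination of replicate fold changes, kanamycin versus none, each normalised to wild type. The library randomised all eight intron nucleotides of the P1ex region, with the intron placed in the knt kanamycin-resistance gene on pET-22b(+) in E. coli BL21(DE3). Six replicate transformations were grown overnight at 37°C or 30°C on LB agar with or without 25 μg/mL kanamycin, plus 100 μg/mL carbenicillin, 50 μM IPTG and 0.2% rhamnose. Pooled colonies were amplicon-sequenced on an Illumina HiSeq 2500.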

Row | Sequence | self-splicing fitness (ln) (30 °C) | self-splicing fitness (ln) (37 °C)
1 | ACAAAGCAAUAUUACGGGCC | -3.9 ± 0.3 | -2.32 ± 0.24
2 | ACAAAGCAAUAUUACGGGCG | -0.625 ± 0.05 | 0.111 ± 0.067
3 | ACAAAGCAAUAUUACGGGUG | -1.21 ± 0.046 | -0.593 ± 0.064
4 | ACAAAGCAAUAUUACGUACA | -1.6 ± 0.083 | -0.786 ± 0.089
5 | ACAAAGCAAUAUUACGUACU | -0.16 ± 0.049 | -0.0261 ± 0.072
6 | ACAAAGCAAUAUUACGUCGU | -2.74 ± 0.093 | -2.05 ± 0.12
7 | ACAAAGCAAUAUUACGUGAG | -0.439 ± 0.049 | -0.4 ± 0.079
8 | ACAAAGCAAUAUUACGUGAU | -1.51 ± 0.063 | -1.09 ± 0.086
9 | ACAAAGCAAUAUUACGUGGC | -3.72 ± 0.21 | -2.91 ± 0.18
10 | ACAAAGCAAUAUUACGUUAA | -2.91 ± 0.17 | -1.32 ± 0.12
11 | ACAAAGCAAUAUUACGUUGA | -1.49 ± 0.079 | -1.24 ± 0.089
12 | ACACAGCAAUAUUACGAAAG | -2.32 ± 0.074 | -2.06 ± 0.11
13 | ACACAGCAAUAUUACGACAA | -1.86 ± 0.11 | -0.755 ± 0.14
14 | ACACAGCAAUAUUACGACUC | -0.737 ± 0.063 | -0.631 ± 0.072
15 | ACACAGCAAUAUUACGAGGG | -3.71 ± 0.11 | -1.85 ± 0.1
16 | ACACAGCAAUAUUACGAGUG | -1.43 ± 0.041 | -0.923 ± 0.057
17 | ACACAGCAAUAUUACGAUCC | -1.21 ± 0.093 | -0.951 ± 0.13
18 | ACACAGCAAUAUUACGAUCU | -0.658 ± 0.053 | 0.14 ± 0.082
19 | ACACAGCAAUAUUACGAUGC | -1.92 ± 0.073 | -0.965 ± 0.094
20 | ACACAGCAAUAUUACGAUUU | -0.589 ± 0.036 | 0.0571 ± 0.056
21 | ACACAGCAAUAUUACGCAUA | -2.45 ± 0.08 | -1.49 ± 0.072
22 | ACACAGCAAUAUUACGCCAC | -3.38 ± 0.33 | -2.66 ± 0.31
23 | ACACAGCAAUAUUACGCCAG | -2.45 ± 0.1 | -1.13 ± 0.13
24 | ACACAGCAAUAUUACGCCGA | -1.15 ± 0.08 | -1.34 ± 0.094

From the supplement of paper PMC7877785
